Reference: article PMC10326445, “Affinity-enhanced RNA-binding domains as tools to understand RNA recognition”

Assays:
[1] = molecular target: FMRP RNA-WT (KH1 WT / KH2 RNA-KO, KH1-2 di-domain) (human (hFMRP), UniProt Q06787 216-425, K299D;N300D;del331-396); assay: NMR titration; unit prefix lost in text (printed M), uM inferred; NMR titrations: 50 uM 15N-protein, 10 mM phosphate pH 6.9, 40 mM NaCl, 0.5 mM TCEP, protein:RNA 1:0 to 1:12; temperature not given; conditions: protein: recombinant; tags: N-terminal 6xHis, cleaved with HRV 3C; single strand
[2] = molecular target: FMRP RNA-AE (KH1 GKKG / KH2 RNA-KO, KH1-2 di-domain) (human (hFMRP), UniProt Q06787 216-425, T236K;H237K;K299D;N300D;del331-396); assay: NMR titration; Kd value only in figure; NMR titrations: 50 uM 15N-protein, 10 mM phosphate pH 6.9, 40 mM NaCl, 0.5 mM TCEP, protein:RNA 1:0 to 1:12; temperature not given; conditions: protein: recombinant; tags: N-terminal 6xHis, cleaved with HRV 3C; single strand

| Binder | Kd [1] [µM] | binding signal [2] |
| --- | --- | --- |
| UGGAC (ssRNA) | 418 ± 57.9 | – |
| GAGCC (ssRNA) | – | ~3 fold weaker than GAGAC |
| UAGAC (ssRNA) | – | 2.5 fold weaker than UGGAC |
| GAGAC (ssRNA) | – | ~3 fold tighter than GAGCC |
